# B1: His-T7-hnRNP C1 ΔBASIC (natural protein)
# chain: MASNVTNKTDPRSMNSRVFIGNLNTLVVKKSDVEAIFSKYGKIVGCSVHKGFAFVQYVNERNARAAVAGEDGRMIAGQVLDINLAAEPKVNRGKAGVKRSAAEMYGSSFDLDYDFQRDYYDRMYSYPARVPPPPPIARALQAIKKELTQIKQKVDSLLENLEKIEKEQSKQAVEMKNDKSEEEQSSSSVKKDETNVKMESEGGADDSAEEGDLLDDDDNEDRGDDQLELIKDDEKEAEEGEDDRDSANGEDDS
# B2: His-T7-hnRNP C1 ΔRRMΔBASIC (natural protein)
# chain: MASNVTNKTDPRSMNPKVNRGKAGVKRSAAEMYGSSFDLDYDFQRDYYDRMYSYPARVPPPPPIARALQAIKKELTQIKQKVDSLLENLEKIEKEQSKQAVEMKNDKSEEEQSSSSVKKDETNVKMESEGGADDSAEEGDLLDDDDNEDRGDDQLELIKDDEKEAEEGEDDRDSANGEDDS
# B3: His-T7-hnRNP C1 wild type (natural protein, UniProt P07910-2 1-293, looked up)
# chain: MASNVTNKTDPRSMNSRVFIGNLNTLVVKKSDVEAIFSKYGKIVGCSVHKGFAFVQYVNERNARAAVAGEDGRMIAGQVLDINLAAEPKVNRGKAGVKRSAAEMYGSSFDLDYDFQRDYYDRMYSYPARVPPPPPIARAVVPSKRQRVSGNTSRRGKSGFNSKSGQRGSSKSGKLKGDDLQAIKKELTQIKQKVDSLLENLEKIEKEQSKQAVEMKNDKSEEEQSSSSVKKDETNVKMESEGGADDSAEEGDLLDDDDNEDRGDDQLELIKDDEKEAEEGEDDRDSANGEDDS
# Target: the molecule itself
# Experiment: SEC
row,Protein,stoichiometry N
1,B1,4
2,B2,4
3,B3,4

# From article PMC9943658 (Nucleic Acids Research, 2023)
